From PMC8780415 come the findings set out here.

Holding throughout (experiment): flow cytometry on cells
Background: A flow cytometer gives signals particle by particle.

Experiment [1] concerns the target NTCP-GFP fusion protein (sodium taurocholate cotransporting polypeptide) (UniProt Q14973).
For experiment [2], the target named is SR-B1-GFP fusion protein (scavenger receptor class B type 1) (UniProt Q8WTV0).
For experiment [3], the target named is Biotinylated Myr47 (myristoylated pre-S1 peptide). The settings on record: HEK293T cells transiently transfected; GFP+ gate; 10,000 cells; triplicate assays; mean and standard error; Myr47 binding examined at 4 °C; parent: est. 13; read off a plot.

Chain of UniProt Q8WTV0 (Q8WTV0 whole entry, the tested form may be a part): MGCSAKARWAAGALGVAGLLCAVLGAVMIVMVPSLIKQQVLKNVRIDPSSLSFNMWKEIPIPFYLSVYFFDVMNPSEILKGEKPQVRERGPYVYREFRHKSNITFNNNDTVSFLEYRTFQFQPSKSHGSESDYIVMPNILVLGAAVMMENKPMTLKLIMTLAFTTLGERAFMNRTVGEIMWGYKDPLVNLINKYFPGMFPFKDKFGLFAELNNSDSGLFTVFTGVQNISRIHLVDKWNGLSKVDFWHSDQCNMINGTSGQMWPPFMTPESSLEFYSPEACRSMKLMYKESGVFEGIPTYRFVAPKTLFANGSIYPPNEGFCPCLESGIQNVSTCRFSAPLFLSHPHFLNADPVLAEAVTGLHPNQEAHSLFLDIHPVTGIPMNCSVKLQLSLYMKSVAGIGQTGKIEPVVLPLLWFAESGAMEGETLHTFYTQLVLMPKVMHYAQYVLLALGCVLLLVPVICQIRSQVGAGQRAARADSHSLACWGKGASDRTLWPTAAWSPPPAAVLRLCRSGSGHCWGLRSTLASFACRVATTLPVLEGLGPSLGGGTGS
Chain of UniProt Q14973 (Q14973 whole entry, the tested form may be a part): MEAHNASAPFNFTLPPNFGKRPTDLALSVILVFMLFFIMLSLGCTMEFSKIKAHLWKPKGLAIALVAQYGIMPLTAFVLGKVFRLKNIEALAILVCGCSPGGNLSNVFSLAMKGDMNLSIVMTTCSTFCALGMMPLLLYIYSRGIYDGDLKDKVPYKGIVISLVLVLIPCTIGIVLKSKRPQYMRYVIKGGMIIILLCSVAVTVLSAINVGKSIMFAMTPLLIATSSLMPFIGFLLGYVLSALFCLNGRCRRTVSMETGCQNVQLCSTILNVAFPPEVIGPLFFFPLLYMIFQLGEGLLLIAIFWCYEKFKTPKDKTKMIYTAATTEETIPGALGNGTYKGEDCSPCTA

Take “Biotinylated Myr47 (myristoylated pre-S1 peptide)”: the fold binding over GFP control cells in experiment [1] was found to be 3.4 fold; in experiment [2], 2.8 fold. As to “SR-B1-GFP fusion protein (scavenger receptor class B type 1) (from UniProt Q8WTV0) K151A”, in experiment [3], the response was determined as 10 FI × 10^3. On to “SR-B1-GFP fusion protein (scavenger receptor class B type 1) (from UniProt Q8WTV0) K156A”, for which the response in experiment [3] stood at 5.8 FI × 10^3. As to “SR-B1-GFP fusion protein (scavenger receptor class B type 1) (from UniProt Q8WTV0) M441A; L448A; L455A”, in experiment [3], the response was found to be 10 FI × 10^3. “SR-B1-GFP fusion protein (scavenger receptor class B type 1) (from UniProt Q8WTV0) S112F”: the response in experiment [3] amounted to 5.3 FI × 10^3. For the substance “SR-B1-GFP fusion protein (scavenger receptor class B type 1) (from UniProt Q8WTV0) T175A”, the response in experiment [3] stood at 5.7 FI × 10^3. In turn, “Yeast-derived nanoparticles containing L protein (bio-nanocapsules, BNCs)” displayed a fold binding over GFP control cells in experiment [2] of 9.2 fold.
